Target: INF1 expressed in planta (FMV 35S promoter, PR1a signal peptide - INF1) (Phytophthora infestans (US-8 genotype))
Experiment: cell-based or functional assay

## Nhr1 expressed from the cosmid Nhr1 clone (tobacco genomic DNA in binary cosmid 04541)
  necrosis percentage (average of 31 leaves), 78 hai: 11%
  necrosis percentage (average of 31 leaves), 94 hai: 19.8%
  necrosis percentage (average of 31 leaves), 102 hai: 26%
  necrosis percentage (average of 31 leaves), 120 hai: 28.9%
  necrosis percentage (average of 31 leaves), 140 hai: 31%
